In the assay the target is Cryptosporidium parvum glucosamine-6-phosphate N-acetyltransferase (CpGNA1) (Cryptosporidium parvum). Nature of the assay: crystal structure; CpGNA1 (1.5 mg/ml) cocrystallised with 10 mM acetyl-CoA, soaked with 50 mM acetyl-CoA and 50 mM Glc6P; space group P2(1)2(1)2(1), two monomers in the asymmetric unit; 1.95 Å.

In PMC7587441, “Plasmodium falciparum Apicomplexan-Specific Glucosamine-6-Phosphate N-Acetyltransferase Is Key for Amino Sugar Metabolism and Asexual Blood Stage Development” (mBio, 2020) one finds stoichiometry N data, which are given here for 1 substance.

With “Cryptosporidium parvum glucosamine-6-phosphate N-acetyltransferase (CpGNA1) (enzyme)”, the stoichiometry N stood at 2.

The stoichiometry N is the number of molecules, sites or subunits per partner or assembly.
